This note sets out measurements from patent publication US8535680B2, “Anti-LPS factor from Parietaria judaica and methods of use thereof” (Consiglio Nazionale Delle Ricerche, priority 2008, dated 2013).

One data set concerns human erythrocytes. Briefly: Hemolysis test. It counts as cell-based. The settings on record: 0.0025-0.025-0.25-2.5-25 mM; 6% erythrocytes; reading at 415 nm; FIG. 6. On the procedure:
FIG. 6: Hemolysis test with human erythrocytes. The assay is capable of describing possible hemolysis induced after incubation with Par37 peptide at different concentrations. There were used 1×PBS as negative control and 0.1% Triton X100 as positive control. Optical Densities measured at […] indicate hemoglobin release in the medium following cell lysis.
For the hemolysis test, peripheral blood, collected from a donor, in heparin was used. A solution of 6% human erythrocytes was prepared. Erythrocyte concentration was controlled by reading the optical density of an hemolysate of the cell suspension thus made: 0.5 ml blood+7 ml distilled water should give a reading of 0.7 O.D. at the spectrophotometer at 541 nm. Erythrocytes were incubated in triplicate with an increasing concentration of Par37 (0.0025-0.025-0.25-2.5-25 mM) and with 1×PBS as negative control and a 0.1% solution of Triton X100 as positive control. Sample reading was carried out at 415 nm.

For another data set, the system named is HeLa cells. Briefly: Cytotoxicity test with HeLa cells (MTS, CellTiter 96 AQueous One). The settings on record: 0.5-5-50 μg/ml, 48 h; FIG. 5. Type of data set: cell-based, human. The procedure: FIG. 5: Cytotoxicity test carried out with HeLa cells in culture. The assay describes the bioreduction of MTS (Owen's Reagent) produced by enzymes having dehydrogenase activity present in metabolically active cells.
The cytotoxity tests were carried out on HeLa cell lines growing in adhesion. Cell lines were maintained in RPMI 1640 culture medium containing 10% fetal calf serum and 0.1% antibiotics (penicillin, streptomycin and gentamycin); cultivated under humid 5% CO2 atmosphere at 37° C. To carry out the cytotoxicity test, the system CellTiter 96 AQueous One Solution Cell Proliferation Assay by Promega was used. In short, Hela cells were resuspended in a 100 μl volume of medium at a concentration of 10,000 cells/ml, then seeded on 96-well flat bottom plates and left to adhere in incubator at 37° C. for 3 h. Thereafter, Par37 peptide was added at increasing concentrations (0.5-5-50 μg/ml). The plate was incubated at 37° C. in 5% CO2 for further 48 h. Then 20 μl of CellTiter 96 AQueous One Solution reagent were added. Cells were thus incubated for 1 h at 37° C. in a CO2 incubator. The test was carried out in triplicate and compared to a row of blanks containing exclusively culture medium. After incubation, a spectrophotometer reading was carried out, measuring absorbance at 490 nm.

Data set [1] has as its system heparinised blood from Pj allergic subjects. Briefly: Histamine release from blood of Pj allergic patients. It counts as cell-based, human. As to conditions: 0.0001 to 1 μg/ml; Pj allergic subjects n=5; FIG. 9. The procedure: FIG. 9: Testing of histamine release from blood of Pj allergic patients. The antigens used were: rParj1 (line with squares, denominated Pj1) and the Par37 peptide (line with triangles). On the x-axis the amounts of protein used, and on the y-axis the percentage of histamine released with respect to the percentage of total histamine present in the patient's mastocytes are reported.
The histamine release assay was carried out by using heparinised blood from Pj allergic subjects (n=5) and an allergen concentration scale ranging from 0.0001 and 1 μg/ml. Release protocol was carried out as previously described (Colombo, P., et al., Identification of an immunodominant IgE epitope of the Parietaria Judaica major allergen. J. Immunol, 1998. 160(6): p. 2780-5). The data reported in FIG. 9 show the percentage of release obtained after stimulation with Parj1 allergen.

Data set [2] deals with LPS (Escherichia coli, serotype 026:B6). Type of data set: binding.
Data set [3] deals with PBMC from Pj allergic patients and non-allergic subjects. Briefly: PBMC proliferation (Cell Proliferation ELISA, BrdU). It counts as cell-based, human. As to conditions: 0.1, 1 and 10 μg/ml, 5 days; 3 Pj allergic patients and 3 non-allergic subjects; FIG. 7. On the procedure: FIG. 7: Analysis of PBMC proliferation of 3 Pj allergic patients and 3 healthy subjects. Stimulation was conducted by adding to the culture medium rParj1 and Par37 synthetic peptide at a concentration of 0.1, 1 and 10 μg/ml. Numerical values on the y-axis indicate proliferation indexes with respect to the unstimulated sample. White histograms identify PBMC stimulated by Parj1, black histograms identify PBMC stimulated by Par37 peptide. Horizontal bars indicate significance values (values above the bar indicate a positive stimulation; values below the bar indicate absence of proliferation).
PBMC from Pj allergic patients (n=3) and non-allergic subjects (n=3) were purified by Ficoll gradient and resuspended in complete RPMI (10% AB serum). Cells were stimulated 5 days with 0.1, 1 and 10 μg/ml rParj1 and Par37. For the determination of stimulation indexes, cells were treated according to what described in the Cell Proliferation ELISA kit, BrdU (colorimetric) (Roche).
(In general: In an ELISA, binding on a coated surface is turned into a signal by an enzyme label.)

The subject of data set [4] is PBMC of non-allergic subjects. Briefly: ELISA of IFN-γ release from PBMC stimulated with the antigen itself. As to conditions: 1 and 10 μg/ml; healthy subjects n=4; FIG. 8.
Description: Black bars indicate the values of the unstimulated sample (negative control), checkered bars the values of cells stimulated by rParj1.01, white bars the values obtained from cells stimulated by Par37 peptide.
(IFN-γ) cytokine production in supernatants after stimulation with the various antigens was evaluated by ELISA, using commercial kits and following the manufacturers' (GE healthcare, IFNg, Human, Biotrak) instructions.

No end group written: not given here.

Consider “LPVSLRHGPVTGPSDPAHKARLERPQIRVPPPAPEKA [Par37]”, for which the “hemolytic effect on human erythrocytes” value in the data set with human erythrocytes is reported as “no hemolytic effect”. Also, the “toxic effect on HeLa cells (MTS bioreduction, absorbance 490 nm)” value in the data set with HeLa cells is reported as “no toxic effect”. Also, in data set [1], the “histamine release (anaphylactic activity)” value is listed as “no histamine release is observed”.

B1: QETCGTMVRALMPCLPFVQGKEKEPSKGCCSGAKRLDGETKTGPQRVHACECIQTAMKTYSDIDGKLVSEVPKHCGIVDSKLPPIDVNMDCKTVGVVPRQPQLPVSLRHGPVTGPSDPAHKARLERPQIRVPPPAPEKA (protein)
chain: QETCGTMVRALMPCLPFVQGKEKEPSKGCCSGAKRLDGETKTGPQRVHACECIQTAMKTYSDIDGKLVSEVPKHCGIVDSKLPPIDVNMDCKTVGVVPRQPQLPVSLRHGPVTGPSDPAHKARLERPQIRVPPPAPEKA
notes: Recombinant isoform of Parietaria judaica major allergen Parj1, 139 aa, containing the Par37 region
Regarding B1, the LPS-binding capability entry in data set [2] (FIG. 3, native isoforms of Parj1) is on record as “has the LPS-binding capability”. Further, the “lowest dilution with positive reaction to the endotoxin in the LAL test (endpoint)” value in data set [2] (eluate of HisTrap column loaded with 100 μg protein, then 100 μg LPS, LAL sensitivity 0.12 EU) is reported as 1/256. In addition, the “cell proliferation (lymphoproliferative activity) of PBMC” value in data set [3] is “capable of inducing cell proliferation in all allergic patients”. The “IFN-γ release from PBMC induced by the antigen itself” value in data set [4] is on record as “impressive secretion of cytokine”.
